Assay results: patent US20050119205A1, “Methods of modulating heme oxygenase-1 expression and treating heme oxygenase-1 mediated conditions” (published 2005)
Substitutions are numbered along the chain they refer to.

Assays:
hBVR L150A = target: T1, hBVR L150A (Homo sapiens, UniProt P53004 SEQ:1-296, L150A); experiment: EMSA; background signal only; conditions: tags: rabbit reticulocyte lysate; chain copies: 2; label: 32P 5'
T1 sequence: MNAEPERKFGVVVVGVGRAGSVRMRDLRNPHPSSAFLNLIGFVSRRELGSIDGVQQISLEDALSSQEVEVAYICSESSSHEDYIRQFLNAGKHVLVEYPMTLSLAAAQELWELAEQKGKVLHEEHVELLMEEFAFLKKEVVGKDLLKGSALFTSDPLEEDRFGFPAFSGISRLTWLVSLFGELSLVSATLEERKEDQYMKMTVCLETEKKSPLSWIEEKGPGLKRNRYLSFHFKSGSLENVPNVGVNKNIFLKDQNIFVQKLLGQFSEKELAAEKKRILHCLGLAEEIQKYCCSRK
Experimental: (§1) As with native gel analysis, in vitro translated proteins were assayed for DNA binding immediately after synthesis. 1 μl of translated material was added to 5000-500,000 cpm of [³²P]-labeled DNA fragment representing approximately 2-3 ng of DNA. 0.1 μg of poly (dI•dC) in 10 μl of DNA binding buffer was added to the labeled DNA. After incubating samples for 20 min at room temperature, 5 μl loading buffer was added. The samples were resolved on 12% native polyacrylamide gel with 35 m Amp at 4° C. The gels were processed as described above. Dried gels were put on two pieces of film separated by a piece of paper. Autoradiography was done at −70° C. for different time periods.
(§2) For this set of experiments, the [³⁵S] methionine-labeled mutant BVR proteins were generated by in vitro translation and assayed on a 12% native gel for detection of the ˜69 kDa protein band and analysis of DNA for complex formation. The 100-mer DNA fragment with two AP-1 sites or without an AP-1 site were used. On the native gel the high molecular weight band was not detected with the mutated proteins.

hBVR L157A = target: T2, hBVR L157A (Homo sapiens, UniProt P53004 SEQ:1-296, L157A); experiment: EMSA; background signal only; conditions: tags: rabbit reticulocyte lysate; chain copies: 2; label: 32P 5'
T2 sequence: T1 sequence with A150L, L157A
Experimental: as §1, §2

hBVR K143A = target: T3, hBVR K143A (Homo sapiens, UniProt P53004 SEQ:1-296, K143A); experiment: EMSA; background signal only; conditions: tags: rabbit reticulocyte lysate; chain copies: 2; label: 32P 5'
T3 sequence: T1 sequence with K143A, A150L
Experimental: as §1, §2

[1] = target: T4, heme oxygenase-1 (hHO-1), E. coli expressed (Homo sapiens, UniProt P09601 P09601:1-288); experiment: EMSA; specificity control; conditions: label: 32P 5'
T4 sequence: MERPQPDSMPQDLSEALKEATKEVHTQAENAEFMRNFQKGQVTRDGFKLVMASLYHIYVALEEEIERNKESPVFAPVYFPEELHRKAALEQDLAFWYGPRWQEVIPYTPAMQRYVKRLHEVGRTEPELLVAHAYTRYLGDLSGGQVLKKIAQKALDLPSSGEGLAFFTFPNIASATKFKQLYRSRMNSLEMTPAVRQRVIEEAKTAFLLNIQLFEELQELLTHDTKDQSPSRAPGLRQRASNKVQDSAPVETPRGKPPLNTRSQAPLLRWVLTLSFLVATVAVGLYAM

Measured: binding result

B1: 100-mer, zero AP-1 sites (OL.625/OL.626) (dsDNA)
DNA 1: TCCTCAGCTGCTTTTATGCGATCCTCTGGTTGGGAGGGGTGATTAGCAGACAAAGGGAAGACAGATTTTGCGATCCTCCCCTCTGTTCCCTCTGCCTCAG
DNA 2: CTGAGGCAGAGGGAACAGAGGGGAGGATCGCAAAATCTGTCTTCCCTTTGTCTGCTAATCACCCCTCCCAACCAGAGGATCGCATAAAAGCAGCTGAGGA
no binding: all assays above
